The results in this text go back to paper PMC4250405.

The test addresses taxol-stabilized microtubules (UniProt Q6B856). The experiment in a line: optical trap bead assay.

In the case of “p150^Glued fragment p150 1-555 (from UniProt P28023 1-555) (domain or fragment)”, the MT binding time of diffusive beads came out at 54.3 s.
